From IntAct's records for PubMed 18680311

Molecular target: sh3k1_human SH3KBP1 (UniProt Q96B97)

Substance: Polyubiquitin-C (Homo sapiens) (from UniProt P0CG48) K6E
- effect of a mutation on the interaction: decreasing interaction
